Changes are numbered by the printed parent chain.
B1: QYD1: AAD-like candidate enzyme; 100.00% identical to US20170022515-0011 (AAD1) (protein)
chain: MAHAALSPLSQRFERIAVQPLTGVLGAEITGVDLREPLDDSTWNEILDAFHTYQVIYFPGQAITNEQHIAFSRRFGPVDPVPLLKSIEGYPEVQMIRREANESGRVIGDDWHTDSTFLDAPPAAVVMRAIDVPEHGGDTGFLSMYTAWETLSPTMQATIEGLNVVHSATRVFGSLYQAQNRRFSNTSVKVMDVDAGDRETVHPLVVTHPGSGRKGLYVNQVYCQRIEGMTDAESKPLLQFLYEHATRFDFTCRVRWKKDQVLVWDNLCTMHRAVPDYAGKFRYLTRTTVGGVRPAR
modifications: Synthetic polypeptide, QYD01, D1
B2: QYD2: AAD-like candidate enzyme; 100.00% identical to US20170009214-0019 (AAD2) (protein)
chain: MTIAIRQLQTHFVGQVSGLDLRKPLTPGEAREVESAMDKYAVLVFHDQDITDEQQMAFALNFGQREDARGGTVTKEKDYRLQSGLNDVSNLGKDGKPLAKDSRTHLFNLGNCLWHSDSSFRPIPAKFSLLSARVVNPTGGNTEFADMRAAYDALDDETKAEIEDLVCEHSLMYSRGSLGFTEYTDEEKQMFKPVLQRLVRTHPVHRRKSLYLSSHAGKIASMSVPEGRLLLRDLNEHATQPEFVYVHKWKLHDLVMWDNRQTMHRVRRYDQSQPRDMRRATVAGTEPTV
modifications: Synthetic polypeptide, QYD02, D2
B3: QYD3: AAD-like candidate enzyme; 100.00% identical to US20160002662-0002 (AAD13) (protein)
chain: MSPAFDIAPLDATFGAVVTGVKLADLDDAGWLDLQAAWLEYALLVFPDQHLTREQQIAFARRFGPLEFEMAAISNVRPDGSLRVESDNDDMMKILKGNMGWHADSTYMPVQAKGAVFSAEVVPSVGGQTGFADMRAAYDALDEDLKARVETLQARHSLHYSQSKLGHQTKAADGEYSGYGLHDGPVPLRPLVKIHPETGRKSLLIGRHAHAIPGLEPAESERLLQQLIDFACQPPRIYHHDWAPGDAVLWDNRCLLHQATPWDMTQKRIMWHSRIAGDPASETALAH
modifications: Synthetic polypeptide, QYD03, D3
B4: QYD4: AAD-like candidate enzyme; 99.65% identical to US20100251432-0002 (AAD13 mutant) (protein)
chain: B3 chain with E69A
modifications: Synthetic polypeptide, QYD04, D4
B5: QYD5: AAD-like candidate enzyme, SEQ ID NO. 9 (protein)
chain: MPFAGELPSAIETQVSKILALIAAYRHRSPNVPDRFAQFVPELEKQLADTVSKKEPVRFVLPAFPFKAPVEGNKRKTLGSLPDKAEEIALKTLDGFADSIAEIYEAGATVVLVSDASVYGDLLNVADAEAFTYHQELQKLASSLGLEHLEFVRPGALAGIAPKDAHTLEEYSDHVNKTRNLLDGPLAQDVNPSEDENVQATSKHYDTALPTTDDPEAFKTAMLKRGKAYAKLIASSSETTIRLSIHESNNVGKITLDLFPPSTNPDFITPWHGAVAVLADASVRIVDASTVDMTKFEVITNAEGRPWLLREKSELFNWFGMELDFEPLFPCGMVVRPRNGYGPYKFEDVNMKQVRRLALSTAPLLLRGFTMEIEKEVFRQKARELGEIQMWPFGDILEVRENADFNMNNVLTREAMPFHYDGVFKTIQDEKTGEWISTPPLFQMFRNRAASQQKGGLTLFSSSRNLIPLLGPDSIPLDELRKLKWKTFTVVNEAFGGHELLLPFIASHPETGADTFRFHEPWPESKCISGSSEPTIVQVVGWPAAESDALCAKLTDLLYDRRVAYRHQWTAGDFIFNDNATTHHTRTAFENGHREHWRVHVS
modifications: Synthetic polypeptide, QYD05, D5
B6: QYD14: AAD-like candidate enzyme, SEQ ID NO. 27 (protein)
chain: MTTTKTKSFITIKNKRFHYIWLRENCPSCRYAAPYQQLYDPNISDRPEYPQPLSVELNEETLTIDWDETPAHRSVFSVEWLLKNSYDPQPELESDNYIFWERAKLELKPPQTYNAETINNDGWMEQLFSLGFVILENIPPEKLESFLSSIGPIFNADYGTIMPLETRDKTTESLPSRDGCPLPPHHDLSYWGGHRLVEFLYCVENQNSGGESTLVDGFQVAQDFSQDYPQYYQTLLETPVQFWLVDKTHQYRFCNIATILECDRYGNLTTVRFSKRNCRPHLPFEQLEDFYQAYHTFFHYLKKNDYKHQFQLRSHNCLLFQNFRILHGRTAFDPALGKRKLNSGYVDWNFFVGRRNFQ
modifications: Synthetic polypeptide, QYD14, D14
B7: QYD31: AAD-like candidate enzyme, SEQ ID NO. 61 (protein)
chain: MKVEHLTEATFGSVVTDIDLETIDDAEWRELYDLWIERALLVFPGAFLSAEGQDAFARRFGDLEFSRAALSNIGKDGKVHHENDDEVVKSLRGNEGWHIDSTYMPVQAKGAVFSAEIVPSSGAATGWADMRSAYEELDAETRERLADLTAYHSLYYSQGRAGNLPDEPNEDGTYNLYGYHDMEVSLRPLIKIHPITERPSLLIGRHAHDIVGMDPAESESLLDDLNDWACQPPRTYHHQWDVGDAVLWDNRRLQHRGTPFDMTEPRRMWHTRIAGDPSSELALNHHPDTVPSDDVERHPTGTWAC
modifications: Synthetic polypeptide, QYD31, D31
B8: QYD71: AAD-like candidate enzyme; 100.00% identical to CN109456986-0002 (protein)
chain: MPFQVNQLHPIFAAEMFGCDILKPVTDETRNAVEDAMAKYAVLVIRDQAAASDEDQVRFAKAFGPLELPPDLGMSERTRPTRVHPKLYDVSNLDENGNLDKPDTLRRKFAKGNELFHTDSSFNDLPTKWSMLLAHVVTPTGGNTEFVDTRAAYDALSPSMKEQVEPLSVIHSLTYSRERGGLTGTTVFDRAFPPVTQPLVRTSASGRKALYIGAHAATVVGMDEAAGRTLLDKLISDASRPEYIYSHKWLPGDLVIWDNRCTMHRATEYAYMEDRRDLRRATINEFGEDRVGARPI
modifications: Synthetic polypeptide, QYD71, D71

Assays:
[1] = Chromogenic reaction of degrading herbicides in bacteria: 2,4-D; assay type: cell-based, Escherichia coli; conditions: recombinant E. coli expressing the gene, 2,4-D added to the medium; red = phenols
Description: To transform the plasmids to be tested, an AAD12-expressing plasmid and a blank control plasmid pET15b were respectively transformed into the protein expression E. coli BL21(DE3) strains. A monoclone was selected and inoculated in a 10 ml centrifuge tube with 3 ml LB medium, and cultivated at 37° C., 200 rpm for 6-8 hours. The culture medium was added with 0.1 mM IPTG and 2 mM α-ketoglutaric acid, and then 0.5 mM 2,4-D. The temperature was switched to 28° C. and the cultivation continued overnight. In the next morning, 200 μL of each bacteria solution was taken and centrifuged to precipitate thallus, 180 μL of the supernatant was taken and added in a 96-well plate, and 20 μL of borate buffer of pH 10 was added. Then the mixture was added with 2 μL of 8% potassium ferricyanide and mixed well, followed by adding 2 μL of 2% 4-aminoantipyrine, and placed at room temperature for 5 min to observe the color and detect the A510 value.
The bacteria solution also appeared red when 2,4-D was directly added into the medium of AAD12-expressing bacteria, as shown in FIG. 1.
2,4-D was added into these bacteria solutions of AAD gene-expressing recombinant E. coli and cultivation was continued for color development.

[2] = tested on: Arabidopsis thaliana; assay: Herbicide resistance of transgenic Arabidopsis thaliana seedlings on plate medium (root growth); assay type: in vivo; conditions: Arabidopsis overexpressing the gene
Description: Expression in Arabidopsis thaliana was regulated by its AtUbi10 Arabidopsis thaliana ubiquitin promoter and the MAS (mannopine synthase) terminator. Hygromycin resistance gene (HygR=hpt) served as the selection marker.
Preparation of Agrobacterium infection solution: An activated Agrobacterium (GV3101) monoclone was picked and inoculated in 30 ml YEP liquid medium [yeast powder 10 g/L, tryptone 10 g/L, NaCl 5 g/L, 25 mg/L Rifampicin and 50 mg/L Kanamycin], shaking-cultured at 200 rmp/min, 28° C. overnight until the OD600 was about 1.0-1.5, then centrifuged at 6000 rmp/min for 10 min to collect the bacteria, and the supernatant was discarded. Arabidopsis thaliana infection solution (sucrose 50 g/L, Silwet L-77 300 μL/L, no need to adjust pH) was used to resuspend the cells to OD600=0.8 for later use.
Genetic transformation of Arabidopsis thaliana by flower dipping: Before transformation of Arabidopsis thaliana plants, attentions were paid to whether the plants were growing well, the inflorescences were abundant, and no stress response occurred. The first transformation was performed when plants were about 20 cm high. Plants could be properly watered if the soil was dry. The grown siliques were cut off with scissors the day before transformation. The inflorescences of the plants to be transformed were soaked in the above-mentioned Agrobacterium solution for 30 seconds to 1 minute, which was stirred gently during the period. And a layer of liquid film should appear on the infiltrated plant. The transformed plants were cultured in a dark environment for 24 hours, and then taken out and grown in a normal light environment. A second transformation could be performed in the same way a week later.
Seeds were treated with disinfectant for 5 min, washed with sterile water for 5 times and then one part was spread on MS transgenic screening medium (containing 30 μg/mL hygromycin, 100 μg/mL carbenicillin) to screen transgenic seedlings, and the other part was spread on MS medicated medium [containing 250 μg/mL Cefotaxime sodium and 0.3 μM 2,4-D] to screen herbicide-resistant seedlings at mean time. The petri dish spread with seeds was placed at 4° C. for vernalization for 3 days, and taken out to a illumination incubator for cultivation (temperature of 22° C., 16 hours of light, 8 hours of darkness, light intensity of 100-150 μmol/m^2/s, humidity of 75%). After one week, it was observed that the roots of the wild-type control seedlings were not elongated and their growth was inhibited, while the transgenic seedlings had normal root growth, showing drug resistance. The transgenic positive seedlings and herbicide-resistant seedlings were photographed and transplanted into small pots filled with soil for cultivation.
The transgenic lines with the nine vectors, pQY2309, pQY2310, pQY2311, pQY2312, pQY2313, pQY2314, pQY2315, pQY2316 and pQY2317, overexpressing AAD gene in the T2 generation were further tested on plate medium for their resistance to 2,4-D, 2,4-DB sodium and MCPA herbicide. Two events were tested for each transformant.

Row | Molecule | Chromogenic reaction of degrading herbicides in bacteria: 2,4-D [1] | Resistance of transgenic Arabidopsis thaliana: 2,4-D [2]
1 | B1 | Yes | Yes
2 | B2 | Yes | Yes
3 | B3 | Yes | Yes
4 | B4 | Yes | Yes
5 | B5 | – | Yes
6 | B6 | – | Yes
7 | B7 | – | Yes
8 | B8 | Yes | –
